From patent publication US20220396632A1 (VERSEAU THERAPEUTICS, published 2022)

Experiments:
[1] = target: T1, Biotin PSGL-1(42-62) peptide, unmodified (human, C-terminal Lys-biotin); experiment: ELISA, plate-bound target
T1 construct: Residues 42-62 followed by GGGK-biotin; also called WT; wild-type
T1 peptide: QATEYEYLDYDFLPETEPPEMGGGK
Protocol: (§1) Two ELISA methods were performed. One procedure detected mAb binding to its plate-immobilized target and the other measured the immobilized antibody's ability to capture biotinylated PSGL-1₄₂₋₆₂. […] The plate was incubated for 45 min at 37° C. Plates were washed 3 times with wash buffer (PBS containing 0.05% tween 20, pH 7.4) and a single concentration (2 to 500 nM) or serially diluted (0.002-100 nM) anti-PSGL-1 mAb was added (25 ul/well) in assay buffer into appropriate wells. The plate was incubated for 45 min at 37° C., washed 3 times, and an appropriate HRP-conjugated secondary antibody added (25 ul/well) (HRP goat anti-mouse or anti-human IgG). After 45 min incubation at 37° C., the plate was washed, and antibody bound to plate-immobilized target was determined at A450 nm using HRP substrate (3,3′,5,5′-etramethylbenzidine (TMB)). For each antibody, duplicate values were averaged and assay background was subtracted. Except for the following, ELISAs involving plate-immobilized mAb capturing of biotinylated PSGL-1₄₂₋₆₂ peptides was performed in the same manner as described above: 3 ug/mL/25 ul per well of mAb was coated directly onto microtiter plate wells; biotinylated unmodified or sulfotyrosine PSGL-1₄₂₋₆₂ was serially diluted (3 nM-3 uM) into appropriate wells, and antibody-bound peptide was detected using HRP-streptavidin (Jackson Immunoresearch, Cat. #016-030-084).

[2] = target: T2, Biotin Y46,48,51(SO3) PSGL-1(42-62) peptide (human, sulfotyrosine at Y46, Y48 and Y51; C-terminal Lys-biotin); experiment: ELISA, plate-bound target
T2 construct: also called fully sulfated N-terminal PSGL-1 peptide
T2 peptide: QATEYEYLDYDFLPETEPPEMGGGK
Protocol: as §1

B1: 20I15 (antibody, V domains shown)
VH: EVKLVESGGGLVQPGGSLSLSCAASGFTFTDYYMSWVRQPPGKALEWLGFIRNKANGYTTEYSASVKGRFTISRDNSQSILYLQMNALRAEDSATYYCARTYLRRGYFDVWGTGTTVTVSS
VL: DIVLTQSPASLAVSLGQRATISCRASKSVSTSGYSYMHWFQQKPGQPPKLLIYLASNLESGVPARFSGSGSGTDFTLNIHPVEEEDAATYYCQHSRELPLTFGAGTKLELK
notes: From mouse immunisation; only variable domains given; also called 20115
EC50 [1]: ~30 nM | EC50 [2]: 0.62 nM
